In PMC11191652 (Biomaterials science, 2024):

Molecular target: p300 (UniProt Q09472 1-2414)
Assay: ELISA

p300, sequence (Q09472 whole entry): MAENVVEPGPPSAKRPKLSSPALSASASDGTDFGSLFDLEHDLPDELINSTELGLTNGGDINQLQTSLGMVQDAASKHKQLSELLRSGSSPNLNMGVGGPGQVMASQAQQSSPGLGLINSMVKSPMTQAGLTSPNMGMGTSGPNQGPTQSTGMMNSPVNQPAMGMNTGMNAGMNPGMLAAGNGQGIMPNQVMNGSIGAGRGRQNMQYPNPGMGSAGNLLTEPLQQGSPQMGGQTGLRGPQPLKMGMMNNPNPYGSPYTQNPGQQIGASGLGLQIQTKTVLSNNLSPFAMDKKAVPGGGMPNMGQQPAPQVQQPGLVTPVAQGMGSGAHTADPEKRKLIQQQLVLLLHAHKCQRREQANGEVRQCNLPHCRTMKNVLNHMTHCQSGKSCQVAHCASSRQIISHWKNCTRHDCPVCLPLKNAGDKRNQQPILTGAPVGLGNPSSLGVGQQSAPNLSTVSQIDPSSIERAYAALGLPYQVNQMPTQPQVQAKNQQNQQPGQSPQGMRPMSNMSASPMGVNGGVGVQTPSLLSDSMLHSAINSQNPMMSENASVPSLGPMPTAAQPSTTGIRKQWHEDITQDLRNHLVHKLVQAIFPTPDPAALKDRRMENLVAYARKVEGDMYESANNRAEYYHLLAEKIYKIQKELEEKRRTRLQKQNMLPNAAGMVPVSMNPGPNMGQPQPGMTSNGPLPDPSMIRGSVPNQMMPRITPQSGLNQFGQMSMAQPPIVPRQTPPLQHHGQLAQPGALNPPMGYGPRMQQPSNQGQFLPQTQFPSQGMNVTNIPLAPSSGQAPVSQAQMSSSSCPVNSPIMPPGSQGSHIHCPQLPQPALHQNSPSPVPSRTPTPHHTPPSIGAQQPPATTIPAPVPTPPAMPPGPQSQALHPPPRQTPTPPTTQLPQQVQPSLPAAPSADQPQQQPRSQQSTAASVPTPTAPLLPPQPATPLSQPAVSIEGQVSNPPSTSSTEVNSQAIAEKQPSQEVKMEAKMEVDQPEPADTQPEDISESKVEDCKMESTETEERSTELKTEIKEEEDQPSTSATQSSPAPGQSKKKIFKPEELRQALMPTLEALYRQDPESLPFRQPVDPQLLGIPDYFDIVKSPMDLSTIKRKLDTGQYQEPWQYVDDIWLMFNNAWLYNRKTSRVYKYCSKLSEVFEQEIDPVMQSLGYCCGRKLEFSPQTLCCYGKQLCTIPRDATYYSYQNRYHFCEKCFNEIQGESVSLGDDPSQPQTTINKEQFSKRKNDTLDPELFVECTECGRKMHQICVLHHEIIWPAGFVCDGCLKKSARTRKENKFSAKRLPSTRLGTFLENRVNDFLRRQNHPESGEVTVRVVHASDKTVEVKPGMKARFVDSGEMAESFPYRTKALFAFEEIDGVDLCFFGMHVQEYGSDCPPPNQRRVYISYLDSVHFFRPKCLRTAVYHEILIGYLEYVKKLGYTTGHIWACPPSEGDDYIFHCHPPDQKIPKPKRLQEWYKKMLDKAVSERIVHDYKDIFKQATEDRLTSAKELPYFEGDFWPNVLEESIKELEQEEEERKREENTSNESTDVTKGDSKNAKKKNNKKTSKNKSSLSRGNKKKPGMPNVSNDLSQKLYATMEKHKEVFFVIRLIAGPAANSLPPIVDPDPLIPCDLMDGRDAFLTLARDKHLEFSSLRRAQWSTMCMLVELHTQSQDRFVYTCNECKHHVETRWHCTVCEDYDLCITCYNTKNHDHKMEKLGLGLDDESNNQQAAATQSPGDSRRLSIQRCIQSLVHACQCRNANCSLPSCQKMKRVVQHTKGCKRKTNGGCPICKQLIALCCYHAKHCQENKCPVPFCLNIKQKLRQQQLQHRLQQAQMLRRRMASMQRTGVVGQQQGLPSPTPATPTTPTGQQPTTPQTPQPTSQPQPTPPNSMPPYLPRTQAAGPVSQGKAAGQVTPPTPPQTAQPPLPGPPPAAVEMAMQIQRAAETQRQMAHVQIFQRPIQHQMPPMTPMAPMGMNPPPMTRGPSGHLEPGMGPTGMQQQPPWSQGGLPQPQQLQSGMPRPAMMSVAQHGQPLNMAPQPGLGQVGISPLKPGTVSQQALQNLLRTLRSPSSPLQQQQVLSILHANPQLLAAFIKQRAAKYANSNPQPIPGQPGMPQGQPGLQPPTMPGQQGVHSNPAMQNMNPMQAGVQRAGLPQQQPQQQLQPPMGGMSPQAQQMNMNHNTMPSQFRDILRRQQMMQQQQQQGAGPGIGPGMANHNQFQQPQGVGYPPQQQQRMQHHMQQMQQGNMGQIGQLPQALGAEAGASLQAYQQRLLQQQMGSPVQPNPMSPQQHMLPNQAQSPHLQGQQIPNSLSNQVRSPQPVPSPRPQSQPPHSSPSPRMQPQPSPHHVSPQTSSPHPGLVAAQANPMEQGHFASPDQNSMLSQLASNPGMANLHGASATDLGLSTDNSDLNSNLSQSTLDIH

SMDESGLPQLTSYDCEVNAPIQGSRNLLQGEELLRALDQVN (domain or fragment, UniProt Q16665 786-826, looked up) [HIF1α C-terminal transactivation domain, HIF1α_(786–826)]
Kd: 14.5 nM
